Patent US20240261333A1, “NOVEL TARGETS FOR ENHANCING ANTI-TUMOR IMMUNITY” (THE BROAD INSTITUTE, INC., priority 2021, published 2024)

How the values were obtained:
TCP1 (human) = TCP1 (human) (UniProt P17987); test: IgG control IP from lysate of cells overexpressing C-FLAG B3GNT2, then mass spectrometry
ANXA2 (human) = ANXA2 (human) (UniProt P07355); test: as above
KHDRBS1 (human) = KHDRBS1 (human) (UniProt Q07666); test: as above
EIF3I (human) = EIF3I (human) (UniProt Q13347); test: as above
TFAM (human) = TFAM (human) (UniProt Q00059); test: as above
TAF15 (human) = TAF15 (human) (UniProt Q92804); test: as above
SRP14 (human) = SRP14 (human) (UniProt P37108); test: as above
PLOD1 (human) = PLOD1 (human) (UniProt Q02809); test: co-IP with IgG control, lysate of C-FLAG B3GNT2 cells, mass spectrometry
Sequence of PLOD1 (human) (Q02809 19-727 limits assumed): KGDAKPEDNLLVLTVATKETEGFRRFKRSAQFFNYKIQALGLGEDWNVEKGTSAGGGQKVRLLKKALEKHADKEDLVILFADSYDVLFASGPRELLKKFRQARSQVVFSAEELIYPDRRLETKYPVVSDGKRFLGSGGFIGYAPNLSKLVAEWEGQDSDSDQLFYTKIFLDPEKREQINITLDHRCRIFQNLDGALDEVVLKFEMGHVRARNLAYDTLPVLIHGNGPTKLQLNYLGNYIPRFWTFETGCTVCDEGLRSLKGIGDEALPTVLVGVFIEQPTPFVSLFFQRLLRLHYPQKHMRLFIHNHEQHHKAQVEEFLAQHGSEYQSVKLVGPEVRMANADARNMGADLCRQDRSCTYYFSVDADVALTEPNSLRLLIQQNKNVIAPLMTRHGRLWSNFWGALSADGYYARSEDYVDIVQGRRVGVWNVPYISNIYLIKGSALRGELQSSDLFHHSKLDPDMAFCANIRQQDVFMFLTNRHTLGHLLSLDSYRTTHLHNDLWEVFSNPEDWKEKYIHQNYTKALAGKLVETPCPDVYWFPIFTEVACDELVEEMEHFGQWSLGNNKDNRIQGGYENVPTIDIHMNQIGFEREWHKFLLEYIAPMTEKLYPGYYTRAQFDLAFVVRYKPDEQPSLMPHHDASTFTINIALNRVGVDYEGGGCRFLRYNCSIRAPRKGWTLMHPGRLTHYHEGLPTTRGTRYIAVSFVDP

HBB (human) = HBB (human) (UniProt P68871); test: as above
DDX17 (human) = DDX17 (human) (UniProt Q92841); test: as above
PSMA3 (human) = PSMA3 (human) (UniProt P25788); test: as above
Sequence of PSMA3 (human) (P25788 2-255 limits assumed): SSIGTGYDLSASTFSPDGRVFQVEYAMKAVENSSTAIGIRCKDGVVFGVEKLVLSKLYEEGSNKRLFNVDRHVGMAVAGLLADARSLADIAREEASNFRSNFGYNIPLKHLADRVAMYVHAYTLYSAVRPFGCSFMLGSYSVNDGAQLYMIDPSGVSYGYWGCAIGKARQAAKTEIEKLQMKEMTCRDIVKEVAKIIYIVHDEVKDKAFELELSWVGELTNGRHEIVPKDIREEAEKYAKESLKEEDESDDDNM

TPM2 (human) = TPM2 (human) (UniProt P07951); test: as above
DDX3X (human) = DDX3X (human) (UniProt O00571); test: as above
PUF60 (human) = PUF60 (human) (UniProt Q9UHX1); test: as above
SMN1 = SMN1 (UniProt Q16637); test: co-IP, anti-FLAG, lysate of N-FLAG B3GNT2 cells, mass spectrometry
LRPPRC = LRPPRC (UniProt P42704); test: as above
RPL29 = RPL29 (UniProt P47914); test: as above
PSMA4 = PSMA4 (UniProt P25789); test: as above
Sequence of PSMA4 (P25789 whole entry): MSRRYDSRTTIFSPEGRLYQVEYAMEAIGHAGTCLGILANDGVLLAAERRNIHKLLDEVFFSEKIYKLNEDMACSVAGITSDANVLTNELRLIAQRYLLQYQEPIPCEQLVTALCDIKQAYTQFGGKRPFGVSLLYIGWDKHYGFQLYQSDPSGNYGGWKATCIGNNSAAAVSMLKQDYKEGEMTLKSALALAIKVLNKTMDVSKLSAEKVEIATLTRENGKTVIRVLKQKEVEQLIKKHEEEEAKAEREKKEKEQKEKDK

SERPINE2 = SERPINE2 (UniProt P07093); test: as above
SEC16A = SEC16A (UniProt O15027); test: as above
CNP = CNP (UniProt P09543); test: as above
SLC25A1 = SLC25A1 (UniProt P53007); test: as above
HSPH1 = HSPH1 (UniProt Q92598); test: as above
Sequence of HSPH1 (Q92598 other isoform, or with tags, fused parts or gaps limits assumed): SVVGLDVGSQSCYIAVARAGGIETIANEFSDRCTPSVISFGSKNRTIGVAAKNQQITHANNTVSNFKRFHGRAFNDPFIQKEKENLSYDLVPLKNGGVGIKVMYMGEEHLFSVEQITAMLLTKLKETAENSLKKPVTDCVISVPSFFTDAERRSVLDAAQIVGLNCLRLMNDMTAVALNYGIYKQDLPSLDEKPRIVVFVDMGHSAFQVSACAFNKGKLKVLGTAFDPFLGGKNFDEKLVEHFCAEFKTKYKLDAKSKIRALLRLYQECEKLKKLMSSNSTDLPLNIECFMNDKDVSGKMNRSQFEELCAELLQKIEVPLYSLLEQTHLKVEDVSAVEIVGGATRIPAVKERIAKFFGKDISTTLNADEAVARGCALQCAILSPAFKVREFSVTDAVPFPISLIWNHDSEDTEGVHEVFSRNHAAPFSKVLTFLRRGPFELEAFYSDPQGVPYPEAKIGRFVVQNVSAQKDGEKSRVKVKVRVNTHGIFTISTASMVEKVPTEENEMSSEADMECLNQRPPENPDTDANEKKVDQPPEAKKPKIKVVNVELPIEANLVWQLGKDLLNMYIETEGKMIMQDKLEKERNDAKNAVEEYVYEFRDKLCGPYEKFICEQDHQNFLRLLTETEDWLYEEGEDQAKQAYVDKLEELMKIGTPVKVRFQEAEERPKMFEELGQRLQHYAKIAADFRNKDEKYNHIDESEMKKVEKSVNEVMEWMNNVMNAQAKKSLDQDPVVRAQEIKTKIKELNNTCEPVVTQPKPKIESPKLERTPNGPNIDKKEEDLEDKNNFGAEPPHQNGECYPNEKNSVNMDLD

LOXL4 = LOXL4 (UniProt Q96JB6); test: as above
OS9 = OS9 (UniProt Q13438); test: as above
Sequence of OS9 (Q13438 other isoform, or with tags, fused parts or gaps limits assumed): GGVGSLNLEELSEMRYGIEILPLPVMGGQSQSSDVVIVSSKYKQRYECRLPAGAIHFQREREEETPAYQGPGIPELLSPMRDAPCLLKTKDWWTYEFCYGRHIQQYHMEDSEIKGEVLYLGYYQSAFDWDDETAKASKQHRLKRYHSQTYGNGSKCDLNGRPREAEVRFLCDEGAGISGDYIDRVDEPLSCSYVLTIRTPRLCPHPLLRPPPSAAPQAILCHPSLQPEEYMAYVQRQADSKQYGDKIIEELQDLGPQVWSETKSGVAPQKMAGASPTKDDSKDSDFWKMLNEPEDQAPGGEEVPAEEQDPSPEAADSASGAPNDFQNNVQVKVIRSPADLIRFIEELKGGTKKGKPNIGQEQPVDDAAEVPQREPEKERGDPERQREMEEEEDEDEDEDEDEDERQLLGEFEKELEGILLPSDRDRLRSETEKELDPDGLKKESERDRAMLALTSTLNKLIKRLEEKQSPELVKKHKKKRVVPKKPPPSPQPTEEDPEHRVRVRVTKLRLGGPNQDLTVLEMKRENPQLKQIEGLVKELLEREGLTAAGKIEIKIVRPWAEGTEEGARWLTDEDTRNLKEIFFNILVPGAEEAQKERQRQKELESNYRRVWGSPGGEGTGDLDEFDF

PRR4 = PRR4 (UniProt Q16378); test: as above
CSPG4 = CSPG4 (UniProt Q6UVK1); test: as above
PSMA1 = PSMA1 (UniProt P25786); test: as above
Sequence of PSMA1 (P25786 whole entry): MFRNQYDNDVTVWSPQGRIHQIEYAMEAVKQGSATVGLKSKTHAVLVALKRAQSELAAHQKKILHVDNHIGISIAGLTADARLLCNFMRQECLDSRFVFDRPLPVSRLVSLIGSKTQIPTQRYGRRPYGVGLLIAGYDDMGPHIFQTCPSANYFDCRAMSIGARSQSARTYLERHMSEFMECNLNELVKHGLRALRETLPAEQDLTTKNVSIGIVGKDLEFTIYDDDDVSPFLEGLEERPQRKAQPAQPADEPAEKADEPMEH

SLC25A3 = SLC25A3 (UniProt Q00325); test: as above
RPL18A = RPL18A (UniProt Q02543); test: as above
RAB1B = RAB1B (UniProt Q9H0U4); test: as above
DPM1 = DPM1 (UniProt O60762); test: as above
CALM2 = CALM2 (UniProt P0DP24); test: as above
SRSF7 = SRSF7 (UniProt Q16629); test: as above
Sequence of SRSF7 (Q16629 whole entry): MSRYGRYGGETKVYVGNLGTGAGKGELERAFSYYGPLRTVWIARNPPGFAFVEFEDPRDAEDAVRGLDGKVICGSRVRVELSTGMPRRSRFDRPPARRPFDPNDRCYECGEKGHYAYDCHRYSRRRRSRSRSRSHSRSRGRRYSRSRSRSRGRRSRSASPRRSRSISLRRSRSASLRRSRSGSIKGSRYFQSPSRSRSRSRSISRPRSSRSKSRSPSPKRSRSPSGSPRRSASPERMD

HSPA5 = HSPA5 (UniProt P11021); test: as above
Sequence of HSPA5 (P11021 19-654 limits assumed): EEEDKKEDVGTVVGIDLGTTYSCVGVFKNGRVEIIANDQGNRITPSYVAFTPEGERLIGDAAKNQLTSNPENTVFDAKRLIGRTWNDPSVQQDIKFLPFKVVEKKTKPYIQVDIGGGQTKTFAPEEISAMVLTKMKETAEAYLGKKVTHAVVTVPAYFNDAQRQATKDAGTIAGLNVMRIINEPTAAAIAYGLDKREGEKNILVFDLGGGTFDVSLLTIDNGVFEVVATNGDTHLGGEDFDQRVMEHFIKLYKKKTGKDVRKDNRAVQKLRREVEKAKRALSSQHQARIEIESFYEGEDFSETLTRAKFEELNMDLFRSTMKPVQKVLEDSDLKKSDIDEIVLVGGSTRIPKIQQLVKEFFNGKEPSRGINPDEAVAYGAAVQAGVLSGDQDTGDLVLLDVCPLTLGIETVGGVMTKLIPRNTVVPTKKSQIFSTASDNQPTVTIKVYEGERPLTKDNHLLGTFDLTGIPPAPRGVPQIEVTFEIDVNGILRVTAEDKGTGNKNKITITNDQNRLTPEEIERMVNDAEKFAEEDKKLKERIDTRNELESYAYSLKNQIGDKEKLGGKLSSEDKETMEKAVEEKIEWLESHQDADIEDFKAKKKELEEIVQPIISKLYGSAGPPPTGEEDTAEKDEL

ALDOA = ALDOA (UniProt P04075); test: as above
SLC25A10 = SLC25A10 (UniProt Q9UBX3); test: as above
TRIM28 = TRIM28 (UniProt Q13263); test: as above
Sequence of TRIM28 (Q13263 2-835 limits assumed): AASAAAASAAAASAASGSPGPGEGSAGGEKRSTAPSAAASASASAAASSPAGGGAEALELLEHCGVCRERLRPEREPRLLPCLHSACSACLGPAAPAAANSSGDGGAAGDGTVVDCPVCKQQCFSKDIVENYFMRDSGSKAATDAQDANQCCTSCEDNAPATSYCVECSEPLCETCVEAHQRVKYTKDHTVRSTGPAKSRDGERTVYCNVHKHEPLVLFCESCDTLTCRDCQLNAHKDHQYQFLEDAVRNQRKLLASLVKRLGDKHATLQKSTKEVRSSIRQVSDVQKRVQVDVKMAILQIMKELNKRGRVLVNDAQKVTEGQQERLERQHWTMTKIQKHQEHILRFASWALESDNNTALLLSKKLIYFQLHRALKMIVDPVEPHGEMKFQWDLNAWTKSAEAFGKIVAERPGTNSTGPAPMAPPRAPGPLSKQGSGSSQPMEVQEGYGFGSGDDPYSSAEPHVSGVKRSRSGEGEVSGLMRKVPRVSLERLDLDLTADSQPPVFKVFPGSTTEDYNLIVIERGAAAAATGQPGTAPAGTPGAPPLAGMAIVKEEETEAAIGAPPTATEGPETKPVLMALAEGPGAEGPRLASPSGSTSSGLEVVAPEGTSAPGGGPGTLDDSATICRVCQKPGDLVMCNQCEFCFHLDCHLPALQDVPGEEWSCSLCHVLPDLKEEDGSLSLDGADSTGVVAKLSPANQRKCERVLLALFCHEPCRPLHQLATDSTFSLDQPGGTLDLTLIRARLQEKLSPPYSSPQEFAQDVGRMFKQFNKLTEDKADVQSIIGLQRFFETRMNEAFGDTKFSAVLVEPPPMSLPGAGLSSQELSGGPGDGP

Sequence of EIF3I (human) (Q13347 whole entry): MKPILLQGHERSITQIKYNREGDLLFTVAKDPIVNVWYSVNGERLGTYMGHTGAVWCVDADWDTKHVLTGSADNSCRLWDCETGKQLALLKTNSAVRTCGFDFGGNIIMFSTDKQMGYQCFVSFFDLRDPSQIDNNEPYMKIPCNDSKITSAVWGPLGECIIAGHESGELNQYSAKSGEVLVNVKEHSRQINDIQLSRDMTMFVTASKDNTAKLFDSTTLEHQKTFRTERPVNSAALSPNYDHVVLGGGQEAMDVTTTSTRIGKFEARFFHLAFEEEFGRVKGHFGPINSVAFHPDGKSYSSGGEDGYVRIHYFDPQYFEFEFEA

Substance: IgG control (Millipore Sigma 12-371) (antibody)
- co-IP mass spectrometry count (C-term IgG) (TCP1 (human)): 0
- co-IP mass spectrometry count (C-term IgG) (ANXA2 (human)): 16
- co-IP mass spectrometry count (C-term IgG) (KHDRBS1 (human)): 7
- co-IP mass spectrometry count (C-term IgG) (EIF3I (human)): 0
- co-IP mass spectrometry count (C-term IgG) (TFAM (human)): 0
- co-IP mass spectrometry count (C-term IgG) (TAF15 (human)): 4
- co-IP mass spectrometry count (C-term IgG) (SRP14 (human)): 0
- co-IP/MS count, C-term IgG (PLOD1 (human)): 0
- co-IP/MS count, C-term IgG (HBB (human)): 0
- co-IP/MS count, C-term IgG (DDX17 (human)): 22
- co-IP/MS count, C-term IgG (PSMA3 (human)): 0
- co-IP/MS count, C-term IgG (TPM2 (human)): 0
- co-IP/MS count, C-term IgG (DDX3X (human)): 15
- co-IP/MS count, C-term IgG (PUF60 (human)): 5

Substance: N-terminal FLAG tagged B3GNT2 (from UniProt Q9NY97 1-397) (enzyme)
- co-IP/MS count (SMN1): 10
- co-IP/MS count (LRPPRC): 2
- co-IP/MS count (RPL29): 4
- co-IP/MS count (PSMA4): 2
- co-IP/MS count (SERPINE2): 4
- co-IP/MS count (SEC16A): 2
- co-IP/MS count (CNP): 5
- co-IP/MS count (SLC25A1): 5
- co-IP/MS count (HSPH1): 8
- co-IP/MS count (LOXL4): 5
- co-IP/MS count (OS9): 3
- co-IP/MS count (PRR4): 2
- co-IP/MS count (CSPG4): 2
- co-IP/MS count (PSMA1): 2
- co-IP/MS count (SLC25A3): 4
- co-IP/MS count (RPL18A): 3
- co-IP/MS count (RAB1B): 0
- co-IP/MS count (DPM1): 4
- co-IP/MS count (CALM2): 0
- co-IP/MS count (SRSF7): 2
- co-IP/MS count (HSPA5): 70
- co-IP/MS count (ALDOA): 2
- co-IP/MS count (SLC25A10): 5
- co-IP/MS count (TRIM28): 4
